# Experimental data: the supplement of paper PMC10201428
# ± gives the standard deviation of the averaged measurements.
# B1: library; a variant is named by its letters at N, in order (parent)
# chain: AATGTTGTTGATGCAACCATAAAGTGATATTTAATAATTATTTATAATCAGCAACTTAACCACAAAACAACCATATATTGATATNTCACAAAACAACCATAANTTGATATTTTTGTGAATCGAGTATTTCAGCAAAACTACTGCAGTAAGAA
# Assays:
# [1] = variants of: B1; assay: relative integration efficiency (T-LR orientation) vs wild-type transposon end (log2 (normalized fold change)); transposon end mutated: left end; higher = more efficient transposition; settings: with VchCAST RNA-guided transposition machinery (E. coli BL21(DE3) host, lacZ target)
# Outline: (§1)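 Barcode abundances in input plasmids and in genomic integration junctions were obtained by PCR amplification and Illumina sequencing. These came from E. coli BL21(DE3) co-transformed with a T7-driven effector plasmid and a pUC57 donor carrying 1549 left-end or 1849 right-end transposon variants, then plated with 0.1 mM IPTG at 37°C for 18 h. Relative integration efficiency is the output/input fold change, normalised to reference barcodes and log-transformed.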
# [2] = variants of: B1; assay: relative integration efficiency (T-RL orientation) vs wild-type transposon end (log2 (normalized fold change)); transposon end mutated: left end; higher = more efficient transposition; settings: with VchCAST RNA-guided transposition machinery (E. coli BL21(DE3) host, lacZ target)
# Outline: as §1
Variant,relative integration efficiency (log2) [1],relative integration efficiency (log2) [2]
CG T110G T111G,-1.08 ± 0.37,-1.16 ± 0.65
AG T84G T86G C87A,0.381 ± 0.25,0.0958 ± 0.22
CG T78G,0.198 ± 0.14,-0.0793 ± 0.054
CG T78A,-0.0877 ± 0.12,0.0885 ± 0.016
CG T78C,0.27 ± 0.3,-0.0794 ± 0.1
CG T39G A40C,-0.0204 ± 0.26,-0.535 ± 0.23
CG T39A A40T,0.255 ± 0.22,0.244 ± 0.039
CG T84A,-0.0315 ± 0.47,-0.0633 ± 0.033
CG T84G,-0.943 ± 0.55,-0.591 ± 0.3
CG T84C,-0.172 ± 0.0094,-0.158 ± 0.056
GG T31A T32A A33T T86A C87G T111A T112A T113A,-0.524 ± 0.35,-0.495 ± 0.72
CG T111A T112A T113A T114A,-0.629 ± 0.047,-0.668 ± 0.39
CG T45G A46C,0.396 ± 0.26,-0.219 ± 0.2
CG T32A A33T,0.105 ± 0.075,-0.145 ± 0.16
CG T57G A58C,-1.37 ± 0.37,-1.45 ± 0.67
CG T79A G80C,-1.35 ± 1.1,-1.89 ± 0.83
CG T112A,-0.239 ± 0.61,-0.304 ± 0.19
CG T112C,-0.138 ± 0.38,-0.258 ± 0.13
CG T112G,-0.249 ± 0.13,-0.63 ± 0.13
CG T86G C87A A88C C89A,-0.0346 ± 0.016,0.0789 ± 0.1
CG T108C,-0.173 ± 0.39,-0.187 ± 0.35
CG T108A,-1.1 ± 0.37,-0.257 ± 0.48
CG T108G,-0.924 ± 0.023,-0.684 ± 0.41

Variant,relative integration efficiency (log2) [1],relative integration efficiency (log2) [2]
CG T38G T39G,0.139 ± 0.043,-0.161 ± 0.039
CG T57A A58T A59T C60G,1.28 ± 0.42,0.281 ± 1
CG T28G T82G T108G,-3.23 ± 3.2,-2.28 ± 0.9
CG T43G A44C A46G T48A C49G A50C C52A A53G T56A T57C A58C,-2.81 ± 2.2,-2.55 ± 1
CG T41C,1.29 ± 0.16,0.304 ± 0.26
CG T41A,-0.651 ± 0.73,0.0865 ± 0.047
CG T41G,0.12 ± 0.36,-0.128 ± 0.018
CG T48A C49G A50T G51C C52G A53T A54T C55G T56A T57A A58T,-2.96 ± 2.6,-3.43 ± 1.1
CG T105G G106T A107C T108G,-2.48 ± 1.8,-2 ± 0.7
CG T74A A75T T76A A77T,-0.829 ± 0.96,-0.759 ± 0.32
CG T100A A101T,-0.623 ± 0.79,-0.364 ± 0.49
TG T76A T78A T84A C87A,0.281 ± 0.38,-0.028 ± 0.21
CG T32A A33T T86A C87G T112A T113A,-0.463 ± 0.11,-0.48 ± 0.21
CG T56G,-0.0431 ± 0.26,-0.112 ± 0.12
CG T56C,-0.129 ± 0.16,-0.2 ± 0.061
CG T56A,0.188 ± 0.11,-0.167 ± 0.0046
CG T79G G80T,-0.966 ± 0.14,-1.24 ± 0.76
CG T32G T86G T112G,-0.809 ± 0.9,-0.686 ± 0.19
CG T28G A29C,-1.26 ± 0.97,-1.24 ± 0.55
GG T84A T86A C87G,0.0518 ± 0.56,-0.036 ± 0.31
CG T41A T42A A44G A46G T48G A50G G51A C52G A53T C55A T56C T57A A59C,0.615 ± 1,-4.14 ± 1.1
CG T32A A33T A34T T35A,0.141 ± 0.33,-0.0669 ± 0.14
CG T76A A77T T78A T79A,-0.702 ± 1.2,-0.611 ± 0.38

Variant,relative integration efficiency (log2) [1],relative integration efficiency (log2) [2]
CG T113A T114A G115C T116A,-0.0852 ± 0.079,0.0572 ± 0.12
CG T111A T112A,-0.101 ± 0.79,-0.479 ± 0.31
AG T82G A83C T84G,-1.31 ± 0.38,-1.7 ± 0.88
CG T110A T111A,-0.344 ± 0.074,-0.513 ± 0.22
CG T82G A83C,-1.19 ± 0.87,-1.4 ± 0.66
CG T105A G106C A107T T108A,-1.32 ± 0.25,-1.6 ± 0.76
TG T76A T78G C87A,0.336 ± 0.26,0.505 ± 0.035
CG T76A,0.179 ± 0.069,0.0494 ± 0.062
CG T76C,-1.37 ± 0.51,-1.06 ± 0.46
CG T76G,-0.699 ± 0.91,-0.903 ± 0.5
CG T31G T32G A33C A34C,-0.805 ± 0.2,-0.592 ± 0.32
CG T32G A33C A34C T35G,0.074 ± 0.25,-0.364 ± 0.079
CG T48G C49A A50C G51T C52A A53C A54C C55A T56G T57G A58C,-3.04 ± 1.4,-2.79 ± 0.63
CG T78G T79G,0.377 ± 0.26,0.387 ± 0.84
CG T48A C49G,0.449 ± 0.71,0.353 ± 0.18
CG T112G T113G T114G G115T,-0.51 ± 0.098,-0.359 ± 0.072
GG T86A C87G A88T,0.143 ± 0.77,-0.152 ± 0.19
CG T113G T114G,-0.0365 ± 0.41,-0.199 ± 0.073
CG T30A T31A,0.174 ± 0.14,0.109 ± 0.27
CG T45A,0.403 ± 0.63,-0.0115 ± 0.062
CG T45C,-0.0724 ± 0.056,-0.326 ± 0.093
CG T45G,-0.109 ± 0.19,-0.0406 ± 0.053
CG T30A T31A T32A A33T,-0.351 ± 0.54,-0.346 ± 0.29

Variant,relative integration efficiency (log2) [1],relative integration efficiency (log2) [2]
CG T100G A101C,-3.81 ± 1.3,-2.16 ± 0.7
CG T82A A83T,-0.417 ± 0.84,-0.851 ± 0.49
CG T35G A36C,-0.467 ± 0.11,-0.318 ± 0.071
CG T41G T42G,1.22 ± 0.23,0.0624 ± 0.23
GG T30A T31A T32A A33T T84A T86A C87G T110A T111A T112A T113A,-1.77 ± 2.3,-1.15 ± 0.64
CG T111G T112G,-0.977 ± 0.75,-0.622 ± 0.16
CG T43A,0.341 ± 0.042,0.0102 ± 0.024
CG T43C,-0.00723 ± 0.047,-0.241 ± 0.11
CG T43G,-0.00931 ± 0.27,-0.28 ± 0.043
CG T114A,-0.000535 ± 0.15,-0.291 ± 0.097
CG T30G T84G T110G,-2.2 ± 0.51,-1.92 ± 0.8
AG T86G C87A A88C,0.0813 ± 0.34,-0.158 ± 0.041
CG T38G T39G A40C T41G,0.212 ± 0.16,-0.193 ± 0.16
CG T113A T114A,-0.122 ± 0.087,-0.426 ± 0.25
CG T104G T105G,-1.76 ± 0.75,-1.3 ± 0.71
CG T39G A40C T41G T42G,0.3517 ± 0.00068,0.179 ± 0.11
CG T104A T105A G106C A107T,-1.39 ± 0.94,-2.04 ± 0.73
CG T56G T57G A58C A59C,-2.31 ± 0.94,-1.82 ± 0.62
CG T79G G80T A81C T82G,-2.43 ± 1.1,-2.68 ± 0.95
CG T42A T43A A44T T45A,0.262 ± 0.049,0.271 ± 0.16
CG T38A T39A,0.516 ± 0.23,0.474 ± 0.18
CG T48G C49A,-0.72 ± 0.49,-0.681 ± 0.47
AG T31G T111G,-0.732 ± 0.38,-0.99 ± 0.44

Variant,relative integration efficiency (log2) [1],relative integration efficiency (log2) [2]
CG T30G T31G,-1.56 ± 0.31,-0.964 ± 0.45
CG T39G A40C T41G T43A A44C A47G C49T G51A A53T C55G A58C A59G C60A,-5.96 ± 2.7,-4.12 ± 1.1
CG T32A,0.415 ± 0.98,0.178 ± 0.032
CG T32G,-0.347 ± 0.098,-0.146 ± 0.14
CG T32C,0.089 ± 0.39,-0.0923 ± 0.12
CG T57A A58T,-3.38 ± 2.1,-0.792 ± 0.44
CG T31A T32A,-0.442 ± 0.33,-0.131 ± 0.028
CG T86G C87A,-0.424 ± 0.33,-0.246 ± 0.1
CG T42A T43A,0.176 ± 0.54,-0.0273 ± 0.049
CG T57A,-0.137 ± 0.84,0.139 ± 0.15
CG T57C,-0.422 ± 0.61,-0.546 ± 0.31
CG T57G,-1.94 ± 0.91,-1.33 ± 0.56
CG T100G,-0.934 ± 1.6,-0.706 ± 0.73
CG T100A,0.42 ± 1,0.66 ± 0.49
CG T100C,-2.04 ± 0.83,-1.27 ± 0.52
CG T30A T31C T32A A77C T86G,0.153 ± 0.44,0.116 ± 0.27
CG T104C,-0.483 ± 0.33,-0.257 ± 0.037
CG T104G,-0.2 ± 0.48,-0.0872 ± 0.27
CG T104A,-0.147 ± 0.15,-0.341 ± 0.23
CG T56A T57A A58T A59T,-1.3 ± 0.89,-1.52 ± 0.76
CG T38C,0.236 ± 0.068,-0.0081 ± 0.1
CG T38A,0.0433 ± 0.41,-0.123 ± 0.054
CG T38G,0.138 ± 0.0017,-0.123 ± 0.065
